Read-outs that look alike come from different tables or passages of the source.

One assay addresses T1, BMP9 (UniProt Q9UK05 320-429).
T1 construct: also called GDF2
T1 sequence (looked up): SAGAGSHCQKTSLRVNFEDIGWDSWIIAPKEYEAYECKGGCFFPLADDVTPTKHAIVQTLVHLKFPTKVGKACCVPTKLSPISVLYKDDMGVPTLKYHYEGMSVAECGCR
As to the kind of experiment: Biacore SPR. In general terms: Surface plasmon resonance follows binding to a sensor surface in real time, without labels.

The target of a further assay is T2, BMP10 (UniProt O95393 317-424).
T2 sequence (looked up): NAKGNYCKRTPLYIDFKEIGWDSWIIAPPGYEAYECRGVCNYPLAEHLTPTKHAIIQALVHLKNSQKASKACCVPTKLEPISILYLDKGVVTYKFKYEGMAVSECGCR
As to the kind of experiment: Biacore SPR.

Assay [1] concerns the target T3, TGFβ1 (human, UniProt P01137 279-390). Put plainly: cell-based or functional assay.
Assay [2] addresses T4, TGFβ2 (human, UniProt P61812 303-414).
T4 sequence (looked up): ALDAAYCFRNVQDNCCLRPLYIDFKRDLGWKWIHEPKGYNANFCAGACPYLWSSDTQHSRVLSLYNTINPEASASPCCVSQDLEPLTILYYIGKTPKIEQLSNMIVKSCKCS
As to the kind of experiment: cell-based or functional assay.

Assay [3] concerns the target T5, TGFβ3 (human, UniProt P10600 301-412).
T5 sequence (looked up): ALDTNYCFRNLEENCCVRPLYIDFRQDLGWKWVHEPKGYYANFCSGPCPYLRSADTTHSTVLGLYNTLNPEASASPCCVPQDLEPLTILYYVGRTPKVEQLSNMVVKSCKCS
As to the kind of experiment: cell-based or functional assay.

The target of assay [4] is T3, TGFβ1. As to the kind of experiment: Biacore SPR; * low signal. The protocol:
(§1) The heteromeric or homomeric protein complexes were independently captured onto the system using an anti-Fc antibody. Ligands were injected and allowed to flow over the captured receptor protein.

Assay [5] has as its target T4, TGFβ2. As to the kind of experiment: Biacore SPR; * low signal. As for the experimental part:
as §1

Assay [6] deals with T5, TGFβ3. Put plainly: Biacore SPR; * low signal. As for the experimental part: as §1
Assay [7] deals with T4, TGFβ2. As to the kind of experiment: Biacore SPR.
Assay [8] has as its target T6, BMP6 (UniProt P22004 382-513, limits assumed).
T6 sequence (looked up): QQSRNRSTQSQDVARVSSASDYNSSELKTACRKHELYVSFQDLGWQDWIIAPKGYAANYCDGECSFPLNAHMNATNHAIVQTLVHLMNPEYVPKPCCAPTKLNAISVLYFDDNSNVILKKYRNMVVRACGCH
As to the kind of experiment: Biacore SPR. The protocol:
(§2) Ligands were injected and allowed to flow over the captured receptor protein.

Assay [9] addresses T7, BMP5 (UniProt P22003 317-454, limits assumed).
T7 sequence (looked up): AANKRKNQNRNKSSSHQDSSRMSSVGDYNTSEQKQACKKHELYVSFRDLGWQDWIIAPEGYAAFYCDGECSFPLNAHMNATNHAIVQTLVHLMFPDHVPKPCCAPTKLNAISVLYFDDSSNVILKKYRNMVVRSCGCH
As to the kind of experiment: Biacore SPR. As for the experimental part:
as §2

For assay [10], the target named is T6, BMP6. As to the kind of experiment: Biacore SPR. As for the experimental part:
as §2
This is another data set of the same source.

Assay [11] concerns the target T8, BMP7 (UniProt P18075 293-431).
T8 sequence (looked up): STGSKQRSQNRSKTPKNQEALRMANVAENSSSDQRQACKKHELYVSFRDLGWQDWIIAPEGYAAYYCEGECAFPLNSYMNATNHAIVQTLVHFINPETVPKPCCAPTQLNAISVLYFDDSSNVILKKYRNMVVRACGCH
Put plainly: Biacore SPR. As for the experimental part:
as §2

For assay [12], the target named is T7, BMP5. As to the kind of experiment: Biacore SPR. The protocol:
as §2
The source holds these as a separate data set.

For assay [13], the target named is T6, BMP6. Put plainly: Biacore SPR. As for the experimental part: as §2
This is another data set of the same source.

In assay [14] the target is T7, BMP5. As to the kind of experiment: Biacore SPR. The protocol: as §2
This is another data set of the same source.

Assay [15] addresses T8, BMP7. Put plainly: Biacore SPR. As for the experimental part:
as §2
The source holds these as a separate data set.

Assay [16] deals with T9, GDF5 (UniProt P43026 382-501).
T9 construct: also called BMP14
T9 sequence (looked up): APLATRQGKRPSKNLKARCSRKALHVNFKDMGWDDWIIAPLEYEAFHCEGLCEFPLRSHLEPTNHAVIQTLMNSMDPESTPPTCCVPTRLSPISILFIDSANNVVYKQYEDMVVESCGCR
As to the kind of experiment: Biacore SPR. The protocol: as §2

The target in another assay is T10, GDF6 (UniProt Q6KF10 336-455, limits assumed).
T10 construct: also called BMP13
T10 sequence (looked up): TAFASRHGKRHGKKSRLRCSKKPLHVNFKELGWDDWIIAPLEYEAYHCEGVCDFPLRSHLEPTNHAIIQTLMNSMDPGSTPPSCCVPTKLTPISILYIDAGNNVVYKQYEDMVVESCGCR
Put plainly: Biacore SPR. As for the experimental part:
as §2

For assay [17], the target named is T6, BMP6. As to the kind of experiment: Biacore SPR. As for the experimental part:
as §2
The source holds these as a separate data set.

Assay [18] has as its target T9, GDF5. As to the kind of experiment: Biacore SPR; kinetics indeterminate (transient). The protocol: as §2
A further assay has as its target T11, GDF7 (UniProt Q7Z4P5 322-450, limits assumed).
T11 construct: also called BMP12
T11 sequence (looked up): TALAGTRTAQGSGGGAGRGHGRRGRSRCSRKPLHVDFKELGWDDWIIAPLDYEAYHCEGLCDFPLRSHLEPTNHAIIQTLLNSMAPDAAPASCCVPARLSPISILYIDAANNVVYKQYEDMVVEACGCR
As to the kind of experiment: Biacore SPR; kinetics indeterminate (transient). As for the experimental part: as §2

T3 sequence (P01137 279-390 limits assumed): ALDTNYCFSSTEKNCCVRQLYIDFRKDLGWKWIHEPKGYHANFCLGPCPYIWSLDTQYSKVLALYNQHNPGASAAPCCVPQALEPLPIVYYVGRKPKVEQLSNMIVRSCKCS

B1: TGFβRIISHORT-Fc:ALK5-Fc heterodimer (Fc fusion)
chain 1: TIPPHVQKSVNNDMIVTDNNGAVKFPQLCKFCDVRFSTCDNQKSCMSNCSITSICEKPQEVCVAVWRKNDENITLETVCHDPKLPYHDFILEDAASPKCIMKEKKKPGETFFMCSCSSDECNDNIIFSEEYNTSNPDTGGGTHTCPPCPAPELLGGPSVFLFPPKPKDTLMISRTPEVTCVVVDVSHEDPEVKFNWYVDGVEVHNAKTKPREEQYNSTYRVVSVLTVLHQDWLNGKEYKCKVSNKALPAPIEKTISKAKGQPREPQVYTLPPSRKEMTKNQVSLTCLVKGFYPSDIAVEWESNGQPENNYKTTPPVLKSDGSFFLYSKLTVDKSRWQQGNVFSCSVMHEALHNHYTQKSLSLSPGK
chain 2: ALLPGATALQCFCHLCTKDNFTCVTDGLCFVSVTETTDKVIHNSMCIAEIDLIPRDRPFVCAPSSKTGSVTTTYCCNQDHCNKIELPTTVKSSPGLGPVETGGGTHTCPPCPAPELLGGPSVFLFPPKPKDTLMISRTPEVTCVVVDVSHEDPEVKFNWYVDGVEVHNAKTKPREEQYNSTYRVVSVLTVLHQDWLNGKEYKCKVSNKALPAPIEKTISKAKGQPREPQVYTLPPSREEMTKNQVSLTCLVKGFYPSDIAVEWESNGQPENNYDTTPPVLDSDGSFFLYSDLTVDKSRWQQGNVFSCSVMHEALHNHYTQKSLSLSPG
notes: also called TGFβRIISHORT:ALK5-Fc Heterodimer; TGFβRII-Fc:ALK5-Fc heterodimer (short isoform)
As usually defined, the Kd is the free concentration of one partner at which half of the binding sites on the other are occupied at equilibrium, for simple one-to-one binding. A high value points to lower affinity. The koff is a measure of how fast the partners let go of each other. A higher koff goes with a short-lived complex. For orientation: kon means the rate constant with which the complex forms. A low value points to slower complex formation. In the case of B1, the binding result with BMP9 and in the assay with BMP10 was “no binding” each time. For the same molecule, the “IC50 (pM), CAGA12-luciferase reporter gene assay in A549 cells, TGFβ1 at 640 pg/mL” value with TGFβ1 [1] was < 350 pM. The “IC50 (pM), CAGA12-luciferase reporter gene assay in A549 cells, TGFβ2 at 480 pg/mL” value with TGFβ2 [2] is ~200 pM. Further, the “IC50 (pM), CAGA12-luciferase reporter gene assay in A549 cells, TGFβ3 at 270 pg/mL” value with TGFβ3 [3] is < 90 pM. Moreover, the values for the Kd in the assay with TGFβ1 [4], with TGFβ2 [5] and with TGFβ3 [6] were 12 pM, 0.4 pM and 38 pM, respectively. For the same molecule, the koff in the assay with TGFβ1 [4] was determined as 0.0017 s⁻¹; with TGFβ2 [5] it was 2.9e-06 s⁻¹; with TGFβ3 [6] it was 0.001 s⁻¹. Further, the on-rate (kon) with TGFβ1 [4] is 1.4e+08 M⁻¹ s⁻¹; with TGFβ2 [5], 6.6e+06 M⁻¹ s⁻¹; with TGFβ3 [6] it was 2.7e+07 M⁻¹ s⁻¹.

B2: TGFβRIILONG-Fc:ALK5-Fc heterodimer (Fc fusion)
chain 1: TIPPHVQKSDVEMEAQKDEIICPSCNRTAHPLRHINNDMIVTDNNGAVKFPQLCKFCDVRFSTCDNQKSCMSNCSITSICEKPQEVCVAVWRKNDENITLETVCHDPKLPYHDFILEDAASPKCIMKEKKKPGETFFMCSCSSDECNDNIIFSEEYNTSNPDTGGGTHTCPPCPAPELLGGPSVFLFPPKPKDTLMISRTPEVTCVVVDVSHEDPEVKFNWYVDGVEVHNAKTKPREEQYNSTYRVVSVLTVLHQDWLNGKEYKCKVSNKALPAPIEKTISKAKGQPREPQVYTLPPSRKEMTKNQVSLTCLVKGFYPSDIAVEWESNGQPENNYKTTPPVLKSDGSFFLYSKLTVDKSRWQQGNVFSCSVMHEALHNHYTQKSLSLSPGK
chain 2: B1 chain 2
notes: also called TGFβRII-Fc:ALK5-Fc heterodimer (long isoform)
Regarding B2, the binding result with BMP9 is given as “no binding”. Besides, in the assay with BMP10, the binding result is “no binding”. Also, in the assay with TGFβ2 [7], the “affinity ratio against TGFβRII-Fc homodimer” value was ~100000 fold and the “off-rate ratio against TGFβRII-Fc homodimer” value was ~10000 fold. The “IC50 (pM), CAGA12-luciferase reporter gene assay in A549 cells, TGFβ1 at 640 pg/mL” value in the assay with TGFβ1 [1] came out at 204 pM. Moreover, in the assay with TGFβ2 [2], the “IC50 (pM), CAGA12-luciferase reporter gene assay in A549 cells, TGFβ2 at 480 pg/mL” value amounted to 154 pM. Moreover, the “IC50 (pM), CAGA12-luciferase reporter gene assay in A549 cells, TGFβ3 at 270 pg/mL” value with TGFβ3 [3] was 35 pM. For the same molecule, in the assay with TGFβ1 [4], the equilibrium dissociation constant (Kd) came to 14 pM, the off-rate (koff) was determined as 0.00092 s⁻¹ and the kon worked out at 6.6e+07 M⁻¹ s⁻¹. In the assay with TGFβ2 [5], this molecule showed a Kd of 0.07 pM, an off-rate constant (koff) of 2.8e-07 s⁻¹ and a kon of 4.2e+06 M⁻¹ s⁻¹. In the assay with TGFβ3 [6], this molecule registered a Kd of 38 pM, a dissociation rate constant (koff) of 0.001 s⁻¹ and a kon of 2.7e+07 M⁻¹ s⁻¹.

B3: ActRIIB-Fc homodimer (Fc fusion, UniProt Q13705 19-137, looked up, not shown: a dimerising Fc or GST)
chain: SGRGEAETRECIYYNANWELERTNQSGLERCEGEQDKRLHCYASWRNSSGTIELVKKGCWLDDFNCYDRQECVATEENPQVYFCCCEGNFCNERFTHLPEAGGPEVTYEPPPTAPTLLT
notes: extracellular domain; also called ActRIIB homodimer
In the case of B3, the Kd is 190 pM in the assay with BMP6 [8]; 2900 pM with BMP5 [9]; 190 pM in the assay with BMP6 [10]; 1600 pM with BMP7 [11]; 2900 pM with BMP5 [12]; 160 pM with BMP6 [13]. For the same molecule, the dissociation constant (Kd) was 9700 pM with BMP5 [14]; 1600 pM in the assay with BMP7 [15]; 1100 pM with GDF5 [16]; 39000 pM with GDF6; 1100 pM with BMP6 [17]; > 9600 pM with GDF5 [18]. Moreover, the dissociation constant (Kd) with GDF7 is > 12000 pM. In addition, the koff was found to be 0.0068 s⁻¹ in the assay with BMP6 [8]; 0.075 s⁻¹ with BMP5 [9]; 0.0068 s⁻¹ with BMP6 [10]; 0.014 s⁻¹ in the assay with BMP7 [11]; 0.075 s⁻¹ in the assay with BMP5 [12]; 0.0039 s⁻¹ in the assay with BMP6 [13]. Moreover, the koff with BMP5 [14] amounted to 0.037 s⁻¹; in the assay with BMP7 [15] it was 0.014 s⁻¹; in the assay with GDF5 [16], 0.0014 s⁻¹; in the assay with GDF6, 0.0057 s⁻¹; with BMP6 [17], 0.007 s⁻¹. Moreover, the kon worked out at 3.2e+07 M⁻¹ s⁻¹ with BMP6 [8]; 2.6e+07 M⁻¹ s⁻¹ with BMP5 [9]; 3.5e+07 M⁻¹ s⁻¹ in the assay with BMP6 [10]; 8.8e+06 M⁻¹ s⁻¹ in the assay with BMP7 [11]; 2.6e+07 M⁻¹ s⁻¹ with BMP5 [12]; 2.4e+07 M⁻¹ s⁻¹ with BMP6 [13]. The association rate constant (kon) in the assay with BMP5 [14] turned out to be 3.8e+06 M⁻¹ s⁻¹; with BMP7 [15], 8.8e+06 M⁻¹ s⁻¹; in the assay with GDF5 [16] it was 1.2e+06 M⁻¹ s⁻¹; with GDF6 it was 150000 M⁻¹ s⁻¹; in the assay with BMP6 [17], 6.4e+06 M⁻¹ s⁻¹.

Source of the values: US20190225669A1 (ACCELERON PHARMA, published 2019).
